The values below come from paper PMC5097833 (Chemico-biological interactions, 2015).

This assay concerns the target human butyrylcholinesterase (human (endogenous in plasma), UniProt P06276). As to the kind of experiment: pull-down.

Chain of human butyrylcholinesterase (P06276 29-602): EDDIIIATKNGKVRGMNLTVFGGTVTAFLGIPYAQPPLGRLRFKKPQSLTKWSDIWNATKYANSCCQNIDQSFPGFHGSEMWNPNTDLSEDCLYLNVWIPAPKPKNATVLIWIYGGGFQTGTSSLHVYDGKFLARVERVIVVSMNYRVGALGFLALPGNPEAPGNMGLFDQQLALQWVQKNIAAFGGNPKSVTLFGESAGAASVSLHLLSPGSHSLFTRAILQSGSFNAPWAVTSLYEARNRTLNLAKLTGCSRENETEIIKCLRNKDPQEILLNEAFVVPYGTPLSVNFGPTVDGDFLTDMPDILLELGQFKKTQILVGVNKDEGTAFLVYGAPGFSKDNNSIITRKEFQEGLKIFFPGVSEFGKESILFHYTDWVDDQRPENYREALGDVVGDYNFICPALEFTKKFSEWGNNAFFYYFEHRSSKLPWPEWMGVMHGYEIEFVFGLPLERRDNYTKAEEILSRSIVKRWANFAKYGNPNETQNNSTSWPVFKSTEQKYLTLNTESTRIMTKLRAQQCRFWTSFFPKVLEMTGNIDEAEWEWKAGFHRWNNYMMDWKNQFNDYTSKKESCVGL

B1: mouse anti-human BChE monoclonal antibody B2 12-1 (antibody, V domains shown)
VH: EVQLQQSGPELVKPGASVKISCKASGYTFTDYSMHWVKLSHGKSLEWIGYIYPYNDDTDYNQKFKTKATLTVDSSSSITYLELRSLTSEDSAVYYCARSDGYSYYFDYWGQGTTLTVSS
VL: DIVMTQSPATLSVTPGDRVSLSCRASQSISDYLHWYQQKSHESPRLLIKYASQSISGIPSRFSGGGSGSDFTLSINSVEPEDVGVYYCQNGHRFPLTFGAGTKLELK
Consider B1, for which the binding result is “binds”.

B2: mouse anti-human BChE monoclonal antibody 11D8 (antibody, V domains shown)
VH: QVQLQQSGAELARPGASVKLSCKASGYTFTSQWLQWVKQRPGQGLEWIGAIYPGDGDTRYTQKFKGKATLTADKSSSTAYMQLTNLAPEDSAVYYCARSSMDYWGQGTSVTVSS
VL: DILLTQSPAILSVSPGERVRLSCRASQSCGTSIYWYQQRTNGSPRLLIMYASEPFSGIPSRFSGSGSGTDFTLSINSVESEDIADYYCQQSNSWPWTFGGGTRLEIK
Turning to B2, the binding result is “binds”.
